Results published in PMC5503505 (Nature structural & molecular biology, 2017).

T1: Orc2 (S. cerevisiae, UniProt P32833 1-620)
T1 sequence: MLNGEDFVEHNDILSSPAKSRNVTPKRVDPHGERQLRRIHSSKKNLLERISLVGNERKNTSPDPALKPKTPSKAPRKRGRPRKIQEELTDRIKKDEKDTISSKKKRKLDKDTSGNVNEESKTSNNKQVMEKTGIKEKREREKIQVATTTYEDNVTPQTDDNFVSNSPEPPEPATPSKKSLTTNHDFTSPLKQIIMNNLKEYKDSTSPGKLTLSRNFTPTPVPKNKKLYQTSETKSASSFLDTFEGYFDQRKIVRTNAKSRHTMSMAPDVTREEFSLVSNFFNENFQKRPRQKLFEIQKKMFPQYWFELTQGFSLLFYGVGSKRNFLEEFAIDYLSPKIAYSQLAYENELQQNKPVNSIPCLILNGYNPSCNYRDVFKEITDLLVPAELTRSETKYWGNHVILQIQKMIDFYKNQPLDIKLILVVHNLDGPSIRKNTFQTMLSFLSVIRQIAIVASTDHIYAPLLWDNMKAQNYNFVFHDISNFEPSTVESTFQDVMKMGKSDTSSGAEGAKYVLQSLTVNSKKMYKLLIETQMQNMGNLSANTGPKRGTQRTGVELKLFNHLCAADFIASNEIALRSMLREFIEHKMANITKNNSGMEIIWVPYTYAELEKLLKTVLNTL

T2: Mcm2 (S. cerevisiae, UniProt P29469 1-868)
T2 sequence: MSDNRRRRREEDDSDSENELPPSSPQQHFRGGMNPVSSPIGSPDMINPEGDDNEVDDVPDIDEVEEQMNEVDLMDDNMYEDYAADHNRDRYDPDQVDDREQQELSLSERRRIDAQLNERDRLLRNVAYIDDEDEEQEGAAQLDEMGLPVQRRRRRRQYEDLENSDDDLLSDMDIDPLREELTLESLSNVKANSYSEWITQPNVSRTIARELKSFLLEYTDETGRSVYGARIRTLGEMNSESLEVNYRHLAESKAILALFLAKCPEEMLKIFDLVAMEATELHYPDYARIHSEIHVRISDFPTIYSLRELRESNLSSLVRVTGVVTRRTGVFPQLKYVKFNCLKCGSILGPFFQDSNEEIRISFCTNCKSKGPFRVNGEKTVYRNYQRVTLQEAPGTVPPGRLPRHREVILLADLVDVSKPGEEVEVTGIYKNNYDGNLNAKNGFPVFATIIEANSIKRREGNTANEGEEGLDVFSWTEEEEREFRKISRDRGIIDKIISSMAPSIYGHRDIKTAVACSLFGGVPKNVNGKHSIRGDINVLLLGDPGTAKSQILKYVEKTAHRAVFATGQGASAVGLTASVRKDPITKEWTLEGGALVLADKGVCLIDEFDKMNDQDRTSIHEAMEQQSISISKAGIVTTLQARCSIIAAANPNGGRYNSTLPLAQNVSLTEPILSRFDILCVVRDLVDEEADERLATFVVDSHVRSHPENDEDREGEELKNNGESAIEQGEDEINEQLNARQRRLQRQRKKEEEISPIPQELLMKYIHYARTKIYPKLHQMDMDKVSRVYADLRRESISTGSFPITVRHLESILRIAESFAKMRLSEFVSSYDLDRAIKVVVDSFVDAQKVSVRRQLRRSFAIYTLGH

T3: Orc4 (S. cerevisiae, UniProt P54791 1-529)
T3 sequence: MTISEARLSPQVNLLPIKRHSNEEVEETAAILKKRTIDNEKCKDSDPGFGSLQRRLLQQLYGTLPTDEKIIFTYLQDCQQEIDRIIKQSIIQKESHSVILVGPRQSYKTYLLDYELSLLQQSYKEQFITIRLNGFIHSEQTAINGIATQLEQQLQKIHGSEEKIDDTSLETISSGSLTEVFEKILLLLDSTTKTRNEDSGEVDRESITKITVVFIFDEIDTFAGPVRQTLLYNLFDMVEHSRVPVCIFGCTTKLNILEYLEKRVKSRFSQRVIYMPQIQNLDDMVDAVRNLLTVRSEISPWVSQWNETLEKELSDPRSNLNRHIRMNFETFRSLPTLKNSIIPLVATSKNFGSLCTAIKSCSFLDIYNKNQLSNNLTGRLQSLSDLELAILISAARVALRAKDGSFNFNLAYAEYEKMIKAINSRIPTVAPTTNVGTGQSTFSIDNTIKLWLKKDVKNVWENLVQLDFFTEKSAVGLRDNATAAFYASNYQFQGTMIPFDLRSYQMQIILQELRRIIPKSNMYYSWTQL

B1: Orc3 (natural protein)
chain: MSDLNQSKKMNVSEFADAQRSHYTVYPSLPQSNKNDKHIPFVKLLSGKESEVNVEKRWELYHQLHSHFHDQVDHIIDNIEADLKAEISDLLYSETTQKRRCFNTIFLLGSDSTTKIELKDESSRYNVLIELTPKESPNVRMMLRRSMYKLYSAADAEEHPTIKYEDINDEDGDFTEQNNDVSYDLSLVENFKRLFGKDLAMVFNFKDVDSINFNTLDNFIILLKSAFKYDHVKISLIFNINTNLSNIEKNLRQSTIRLLKRNYHKLDVSSNKGFKYGNQIFQSFLDTVDGKLNLSDRFVEFILSKMANNTNHNLQLLTKMLDYSLMSYFFQNAFSVFIDPVNVDFLNDDYLKILSRCPTFMFFVEGLIKQHAPADEILSLLTNKNRGLEEFFVEFLVRENPINGHAKFVARFLEEELNITNFNLIELYHNLLIGKLDSYLDRWSACKEYKDRLHFEPIDTIFQELFTLDNRSGLLTQSIFPSYKSNIEDNLLSWEQVLPSLDKENYDTLSGDLDKIMAPVLGQLFKLYREANMTINIYDFYIAFRETLPKEEILNFIRKDPSNTKLLELAETPDAFDKVALILFMQAIFAFENMGLIKFQSTKSYDLVEKCVWRGI

Experiments:
Assay in all cases: cryo-EM structure
Orc2 = molecular target: T1, Orc2
Mcm6 = Mcm6 (S. cerevisiae, UniProt P53091 1-1017)
Mcm2 = molecular target: T2, Mcm2
Orc4 = molecular target: T3, Orc4
Orc3 = molecular target: B1

Sequence of Mcm6 (P53091 whole entry): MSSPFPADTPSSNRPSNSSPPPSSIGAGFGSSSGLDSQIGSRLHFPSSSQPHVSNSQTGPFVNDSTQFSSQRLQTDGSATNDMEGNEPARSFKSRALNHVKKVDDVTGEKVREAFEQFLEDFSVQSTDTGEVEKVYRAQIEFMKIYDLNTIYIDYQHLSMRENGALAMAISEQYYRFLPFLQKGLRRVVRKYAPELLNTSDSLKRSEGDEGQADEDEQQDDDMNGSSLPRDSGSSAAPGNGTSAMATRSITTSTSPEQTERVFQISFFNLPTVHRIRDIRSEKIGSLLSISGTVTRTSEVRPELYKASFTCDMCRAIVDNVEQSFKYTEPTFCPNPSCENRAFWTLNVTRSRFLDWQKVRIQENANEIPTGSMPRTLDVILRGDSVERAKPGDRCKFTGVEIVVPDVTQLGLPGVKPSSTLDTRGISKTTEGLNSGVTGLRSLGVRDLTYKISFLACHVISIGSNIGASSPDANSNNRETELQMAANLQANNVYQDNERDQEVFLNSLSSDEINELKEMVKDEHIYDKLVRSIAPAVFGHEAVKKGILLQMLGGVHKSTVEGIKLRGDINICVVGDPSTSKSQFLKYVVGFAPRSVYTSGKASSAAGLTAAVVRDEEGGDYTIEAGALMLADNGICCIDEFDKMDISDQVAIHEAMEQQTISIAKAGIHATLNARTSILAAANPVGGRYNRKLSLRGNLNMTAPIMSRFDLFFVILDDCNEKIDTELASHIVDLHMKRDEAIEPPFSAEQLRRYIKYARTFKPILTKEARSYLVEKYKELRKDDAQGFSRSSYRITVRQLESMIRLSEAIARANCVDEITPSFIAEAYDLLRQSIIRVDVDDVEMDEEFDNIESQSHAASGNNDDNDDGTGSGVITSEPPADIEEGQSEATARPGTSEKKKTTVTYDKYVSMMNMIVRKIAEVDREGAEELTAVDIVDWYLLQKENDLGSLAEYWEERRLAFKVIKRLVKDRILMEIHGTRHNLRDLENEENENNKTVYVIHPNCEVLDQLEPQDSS

Binder	binding result (Orc2)	binding result (Mcm6)	binding result (Mcm2)	binding result (Orc4)	binding result (Orc3)
B1	binds				
Orc5 (natural protein) MNVTTPEVAFREYQTNCLASYISADPDITPSNLILQGYSGTGKTYTLKKYFNANPNLHAVWLEPVELVSWKPLLQAIARTVQYKLKTLYPNIPTTDYDPLQVEEPFLLVKTLHNIFVQYESLQEKTCLFLILDGFDSLQDLDAALFNKYIKLNELLPKDSKINIKFIYTMLETSFLQRYSTHCIPTVMFPRYNVDEVSTILVMSRCGELMEDSCLRKRIIEEQITDCTDDQFQNVAANFIHLIVQAFHSYTGNDIFALNDLIDFKWPKYVSRITKENIFEPLALYKSAIKLFLSTDDNLSENGQGESAITTNRDDLENSQTYDLSIISKYLLIASYICSYLEPRYDASIFSRKTRIIQGRAAYGRRKKKEVNPRYLQPSLFAIERLLAIFQAIFPIQGKAESGSLSALREESLMKANIEVFQNLSELHTLKLIATTMNKNIDYLSPKVRWKVNVPWEIIKEISESVHFNISDYFSDIHE		binds	binds	binds	binds
